Laboratory results reported in IntAct's records for PubMed 32296183.

B1: Golgi SNAP receptor complex member 2 (Homo sapiens), O14653 (parent)
chain: MDPLFQQTHKQVHEIQSCMGRLETADKQSVHIVENEIQASIDQIFSRLERLEILSSKEPPNKRQNARLRVDQLKYDVQHLQTALRNFQHRRHAREQQERQREELLSRTFTTNDSDTTIPMDESLQFNSSLQKVHNGMDDLILDGHNILDGLRTQRLTLKGTQKKILDIANMLGLSNTVMRLIEKRAFQDKYFMIGGMLLTCVVMFLVVQYLT
partner: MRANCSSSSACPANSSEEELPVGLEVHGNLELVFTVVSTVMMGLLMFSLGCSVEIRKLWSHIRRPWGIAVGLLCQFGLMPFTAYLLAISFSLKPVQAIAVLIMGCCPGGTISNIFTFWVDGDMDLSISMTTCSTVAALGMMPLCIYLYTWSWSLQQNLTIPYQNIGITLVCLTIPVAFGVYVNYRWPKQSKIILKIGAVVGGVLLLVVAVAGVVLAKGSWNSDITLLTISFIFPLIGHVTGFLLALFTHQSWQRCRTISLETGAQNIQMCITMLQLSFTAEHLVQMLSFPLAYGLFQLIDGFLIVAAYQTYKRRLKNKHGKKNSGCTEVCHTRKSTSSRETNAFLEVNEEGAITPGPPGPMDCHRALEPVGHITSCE
B2: Catenin alpha-3 (Homo sapiens), Q9UI47-2 (parent)
chain: MSAETPITLNIDPQDLQVQTFTVEKLLEPLIIQVTTLVNCPQNPSSRKKGRSKRASVLLASVEEATWNLLDKGEKIAQEATVLKDELTASLEEVRKESEALKVSAERFTDDPCFLPKREAVVQAARALLAAVTRLLILADMIDVMCLLQHVSAFQRTFESLKNVANKSDLQKTYQKLGKELENLDYLAFKRQQDLKSPNQRDEIAGARASLKENSPLLHSICSACLEHSDVASLKASKDTVCEEIQNALNVISNASQGIQNMTTPPEPQAATLGSALDELENLIVLNPLTVTEEEIRPSLEKRLEAIISGAALLADSSCTRDLHRERIIAECNAIRQALQDLLSEYMNNAGKKERSNTLNIALDNMCKKTRDLRRQLRKAIIDHVSDSFLDTTVPLLVLIEAAKNGREKEIKEYAAIFHEHTSRLVEVANLACSMSTNEDGIKIVKIAANHLETLCPQIINAALALAARPKSQAVKNTMEMYKRTWENHIHVLTEAVDDITSIDDFLAVSGMFLFF
partner: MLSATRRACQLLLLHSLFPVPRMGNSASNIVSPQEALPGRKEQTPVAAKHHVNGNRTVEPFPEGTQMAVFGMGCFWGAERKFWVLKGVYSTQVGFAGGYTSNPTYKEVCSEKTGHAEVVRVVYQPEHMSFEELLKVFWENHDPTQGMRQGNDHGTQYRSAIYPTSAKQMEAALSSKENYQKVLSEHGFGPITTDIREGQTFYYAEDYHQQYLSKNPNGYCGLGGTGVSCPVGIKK
B3: Golgi SNAP receptor complex member 2 (Homo sapiens), O14653 (parent)
chain: B1 chain
partner: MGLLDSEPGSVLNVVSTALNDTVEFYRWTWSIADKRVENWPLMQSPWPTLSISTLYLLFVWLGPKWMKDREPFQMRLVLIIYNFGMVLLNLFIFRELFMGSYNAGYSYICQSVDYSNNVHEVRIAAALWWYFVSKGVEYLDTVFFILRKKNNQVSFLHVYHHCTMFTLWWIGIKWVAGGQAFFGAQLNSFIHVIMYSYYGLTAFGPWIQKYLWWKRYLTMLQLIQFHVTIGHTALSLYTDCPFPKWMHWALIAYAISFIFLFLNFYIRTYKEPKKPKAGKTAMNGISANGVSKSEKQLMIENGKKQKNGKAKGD
B4: Catenin alpha-3 (Homo sapiens), Q9UI47-2 (parent)
chain: B2 chain
partner: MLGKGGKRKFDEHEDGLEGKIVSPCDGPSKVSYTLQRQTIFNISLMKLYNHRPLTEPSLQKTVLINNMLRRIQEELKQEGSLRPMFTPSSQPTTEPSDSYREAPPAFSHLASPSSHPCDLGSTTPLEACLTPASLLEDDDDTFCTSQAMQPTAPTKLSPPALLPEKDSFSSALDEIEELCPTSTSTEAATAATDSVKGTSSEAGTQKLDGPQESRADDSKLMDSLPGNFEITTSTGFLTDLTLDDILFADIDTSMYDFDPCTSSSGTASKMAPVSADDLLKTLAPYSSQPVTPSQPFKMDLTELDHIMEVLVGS
B5: Catenin alpha-3 (Homo sapiens), Q9UI47-2 (parent)
chain: B2 chain
partner: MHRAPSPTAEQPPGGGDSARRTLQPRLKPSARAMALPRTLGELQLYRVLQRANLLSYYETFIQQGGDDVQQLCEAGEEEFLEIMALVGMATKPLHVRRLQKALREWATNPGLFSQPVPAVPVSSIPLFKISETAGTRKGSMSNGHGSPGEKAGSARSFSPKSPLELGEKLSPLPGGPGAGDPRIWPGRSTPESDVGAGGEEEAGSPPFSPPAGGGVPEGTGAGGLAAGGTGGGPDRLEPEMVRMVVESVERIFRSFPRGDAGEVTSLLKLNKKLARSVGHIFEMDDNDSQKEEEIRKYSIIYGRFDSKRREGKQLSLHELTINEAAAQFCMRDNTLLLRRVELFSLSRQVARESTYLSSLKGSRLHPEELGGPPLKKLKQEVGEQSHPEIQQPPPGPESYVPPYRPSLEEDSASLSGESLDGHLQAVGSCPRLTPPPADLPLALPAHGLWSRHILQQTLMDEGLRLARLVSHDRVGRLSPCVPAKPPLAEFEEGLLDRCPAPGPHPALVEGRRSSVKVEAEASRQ
B6: Catenin alpha-3 (Homo sapiens), Q9UI47-2 (parent)
chain: B2 chain
partner: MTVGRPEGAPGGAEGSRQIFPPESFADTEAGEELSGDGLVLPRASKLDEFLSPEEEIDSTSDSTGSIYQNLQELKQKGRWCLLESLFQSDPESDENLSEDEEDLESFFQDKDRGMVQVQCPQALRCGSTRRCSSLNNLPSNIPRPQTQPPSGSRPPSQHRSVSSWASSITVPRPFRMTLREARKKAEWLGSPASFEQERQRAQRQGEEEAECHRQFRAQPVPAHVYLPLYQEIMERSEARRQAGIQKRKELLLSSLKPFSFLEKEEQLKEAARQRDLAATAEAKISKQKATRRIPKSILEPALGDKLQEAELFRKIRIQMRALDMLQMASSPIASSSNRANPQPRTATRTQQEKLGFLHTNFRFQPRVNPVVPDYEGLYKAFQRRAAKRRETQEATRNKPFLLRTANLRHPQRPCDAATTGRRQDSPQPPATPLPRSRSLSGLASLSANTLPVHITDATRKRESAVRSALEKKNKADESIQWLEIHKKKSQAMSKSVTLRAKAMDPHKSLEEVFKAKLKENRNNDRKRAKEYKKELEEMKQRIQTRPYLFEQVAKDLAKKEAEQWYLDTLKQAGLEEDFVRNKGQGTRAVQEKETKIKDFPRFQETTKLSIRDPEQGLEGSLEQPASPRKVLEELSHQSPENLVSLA
B7: Very-long-chain enoyl-CoA reductase (Homo sapiens), Q9NZ01 (parent)
chain: MKHYEVEILDAKTREKLCFLDKVEPHATIAEIKNLFTKTHPQWYPARQSLRLDPKGKSLKDEDVLQKLPVGTTATLYFRDLGAQISWVTVFLTEYAGPLFIYLLFYFRVPFIYGHKYDFTSSRHTVVHLACICHSFHYIKRLLETLFVHRFSHGTMPLRNIFKNCTYYWGFAAWMAYYINHPLYTPPTYGAQQVKLALAIFVICQLGNFSIHMALRDLRPAGSKTRKIPYPTKNPFTWLFLLVSCPNYTYEVGSWIGFAIMTQCLPVALFSLVGFTQMTIWAKGKHRSYLKEFRDYPPLRMPIIPFLL
B8: Golgi SNAP receptor complex member 2 (Homo sapiens), O14653 (parent)
chain: B1 chain
partner: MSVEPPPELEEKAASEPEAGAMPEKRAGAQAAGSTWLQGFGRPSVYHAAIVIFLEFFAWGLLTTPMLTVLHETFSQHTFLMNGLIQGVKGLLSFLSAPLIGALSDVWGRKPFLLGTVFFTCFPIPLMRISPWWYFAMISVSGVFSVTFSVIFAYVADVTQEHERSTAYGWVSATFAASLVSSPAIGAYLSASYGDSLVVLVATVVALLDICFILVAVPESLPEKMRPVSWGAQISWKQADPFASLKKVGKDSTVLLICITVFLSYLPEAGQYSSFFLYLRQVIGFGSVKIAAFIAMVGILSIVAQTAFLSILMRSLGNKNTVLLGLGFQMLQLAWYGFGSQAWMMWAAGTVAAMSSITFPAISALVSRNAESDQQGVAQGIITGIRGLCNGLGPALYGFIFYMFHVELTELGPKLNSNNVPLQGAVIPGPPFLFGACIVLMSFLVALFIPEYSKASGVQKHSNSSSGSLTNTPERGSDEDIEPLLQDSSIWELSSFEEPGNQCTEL
B9: Very-long-chain enoyl-CoA reductase (Homo sapiens), Q9NZ01 (parent)
chain: B7 chain
partner: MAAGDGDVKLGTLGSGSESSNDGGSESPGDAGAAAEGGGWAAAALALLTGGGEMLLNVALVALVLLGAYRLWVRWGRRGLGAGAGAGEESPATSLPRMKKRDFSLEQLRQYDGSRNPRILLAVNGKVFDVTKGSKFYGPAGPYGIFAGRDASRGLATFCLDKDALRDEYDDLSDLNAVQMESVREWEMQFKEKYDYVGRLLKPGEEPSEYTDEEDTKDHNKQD
B10: Catenin alpha-3 (Homo sapiens), Q9UI47-2 (parent)
chain: B2 chain
partner: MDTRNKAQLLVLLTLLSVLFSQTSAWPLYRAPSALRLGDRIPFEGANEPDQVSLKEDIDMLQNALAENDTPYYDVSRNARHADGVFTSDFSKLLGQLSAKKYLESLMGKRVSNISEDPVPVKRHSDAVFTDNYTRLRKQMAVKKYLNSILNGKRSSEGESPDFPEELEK
B11: Golgi SNAP receptor complex member 2 (Homo sapiens), O14653 (parent)
chain: B1 chain
partner: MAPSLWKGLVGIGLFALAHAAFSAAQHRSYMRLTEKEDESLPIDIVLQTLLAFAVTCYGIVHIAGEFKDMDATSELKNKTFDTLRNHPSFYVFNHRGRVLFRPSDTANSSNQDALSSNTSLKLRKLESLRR
B12: Golgi SNAP receptor complex member 2 (Homo sapiens), O14653 (parent)
chain: B1 chain
partner: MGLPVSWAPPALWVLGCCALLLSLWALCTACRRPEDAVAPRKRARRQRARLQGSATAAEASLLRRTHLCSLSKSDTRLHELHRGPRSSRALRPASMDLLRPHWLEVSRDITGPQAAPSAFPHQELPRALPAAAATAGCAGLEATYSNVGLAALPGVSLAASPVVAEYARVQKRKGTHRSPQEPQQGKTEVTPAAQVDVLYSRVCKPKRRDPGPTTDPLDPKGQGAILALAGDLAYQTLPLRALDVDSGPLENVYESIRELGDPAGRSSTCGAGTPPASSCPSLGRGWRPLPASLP
B13: Transmembrane protein 43 (Homo sapiens), Q9BTV4 (parent)
chain: MAANYSSTSTRREHVKVKTSSQPGFLERLSETSGGMFVGLMAFLLSFYLIFTNEGRALKTATSLAEGLSLVVSPDSIHSVAPENEGRLVHIIGALRTSKLLSDPNYGVHLPAVKLRRHVEMYQWVETEESREYTEDGQVKKETRYSYNTEWRSEIINSKNFDREIGHKNPSAMAVESFMATAPFVQIGRFFLSSGLIDKVDNFKSLSLSKLEDPHVDIIRRGDFFYHSENPKYPEVGDLRVSFSYAGLSGDDPDLGPAHVVTVIARQRGDQLVPFSTKSGDTLLLLHHGDFSAEEVFHRELRSNSMKTWGLRAAGWMAMFMGLNLMTRILYTLVDWFPVFRDLVNIGLKAFAFCVATSLTLLTVAAGWLFYRPLWALLIAGLALVPILVARTRVPAKKLE
partner: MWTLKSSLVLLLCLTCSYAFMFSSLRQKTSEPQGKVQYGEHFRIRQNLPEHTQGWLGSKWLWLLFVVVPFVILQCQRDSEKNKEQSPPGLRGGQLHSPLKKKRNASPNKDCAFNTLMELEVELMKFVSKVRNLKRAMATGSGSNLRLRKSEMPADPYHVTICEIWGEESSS

Variants of: B1
Conditions: with soat_human SLC10A6, Q3KNW5

Row | effect of a mutation on the interaction | Variant
1 | with no effect | G144W

Variants of: B2
Conditions: with msra_human MSRA

Row | effect of a mutation on the interaction | Variant
2 | with no effect | V94D

Variants of: B3
Conditions: with elov4_human ELOVL4, Q9GZR5

Row | effect of a mutation on the interaction | Variant
3 | with no effect | G144W

Variants of: B4
Conditions: with srtd2_human SERTAD2, Q14140

Row | effect of a mutation on the interaction | Variant
4 | disrupting interaction strength | V94D

Variants of: B5
Conditions: with nab2_human NAB2, Q15742

Row | effect of a mutation on the interaction | Variant
5 | disrupting interaction strength | V94D

Variants of: B6
Conditions: with FAM161B

Row | effect of a mutation on the interaction | Variant
6 | with no effect | V94D

Variants of: B7
Conditions: with ergi3_human ERGIC3, Q9Y282
Chain of ergi3_human ERGIC3, Q9Y282 (Q9Y282 whole entry): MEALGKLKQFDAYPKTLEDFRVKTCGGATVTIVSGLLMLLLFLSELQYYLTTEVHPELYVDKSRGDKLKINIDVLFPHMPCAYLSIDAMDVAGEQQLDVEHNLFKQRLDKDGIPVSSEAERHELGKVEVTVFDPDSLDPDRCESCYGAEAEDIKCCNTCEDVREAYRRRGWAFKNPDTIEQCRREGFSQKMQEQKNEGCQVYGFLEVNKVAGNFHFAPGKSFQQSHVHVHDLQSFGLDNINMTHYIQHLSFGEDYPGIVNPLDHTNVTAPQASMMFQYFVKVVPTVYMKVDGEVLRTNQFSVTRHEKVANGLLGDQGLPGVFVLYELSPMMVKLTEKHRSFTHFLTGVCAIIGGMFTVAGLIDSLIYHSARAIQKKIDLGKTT

Row | effect of a mutation on the interaction | Variant
7 | disrupting interaction strength | P182L

Variants of: B7
Conditions: with cd79a_human CD79A

Row | effect of a mutation on the interaction | Variant
8 | disrupting interaction strength | P182L

Variants of: B7
Conditions: with MUC1, P15941-11
Chain of MUC1, P15941-11 (P15941 other isoform, or with tags, fused parts or gaps): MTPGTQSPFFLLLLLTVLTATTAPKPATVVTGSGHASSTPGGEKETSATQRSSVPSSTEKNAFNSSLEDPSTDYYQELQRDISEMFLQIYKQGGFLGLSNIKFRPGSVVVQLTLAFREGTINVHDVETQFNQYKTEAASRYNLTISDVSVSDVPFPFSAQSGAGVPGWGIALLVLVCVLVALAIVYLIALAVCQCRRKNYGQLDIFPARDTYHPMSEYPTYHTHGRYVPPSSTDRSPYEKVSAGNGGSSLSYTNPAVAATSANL

Row | effect of a mutation on the interaction | Variant
9 | disrupting interaction strength | P182L

Variants of: B7
Conditions: with ar13b_human ARL13B

Row | effect of a mutation on the interaction | Variant
10 | disrupting interaction strength | P182L

Variants of: B7
Conditions: with SLC7A14, Q8TBB6
Chain of SLC7A14, Q8TBB6 (Q8TBB6 whole entry): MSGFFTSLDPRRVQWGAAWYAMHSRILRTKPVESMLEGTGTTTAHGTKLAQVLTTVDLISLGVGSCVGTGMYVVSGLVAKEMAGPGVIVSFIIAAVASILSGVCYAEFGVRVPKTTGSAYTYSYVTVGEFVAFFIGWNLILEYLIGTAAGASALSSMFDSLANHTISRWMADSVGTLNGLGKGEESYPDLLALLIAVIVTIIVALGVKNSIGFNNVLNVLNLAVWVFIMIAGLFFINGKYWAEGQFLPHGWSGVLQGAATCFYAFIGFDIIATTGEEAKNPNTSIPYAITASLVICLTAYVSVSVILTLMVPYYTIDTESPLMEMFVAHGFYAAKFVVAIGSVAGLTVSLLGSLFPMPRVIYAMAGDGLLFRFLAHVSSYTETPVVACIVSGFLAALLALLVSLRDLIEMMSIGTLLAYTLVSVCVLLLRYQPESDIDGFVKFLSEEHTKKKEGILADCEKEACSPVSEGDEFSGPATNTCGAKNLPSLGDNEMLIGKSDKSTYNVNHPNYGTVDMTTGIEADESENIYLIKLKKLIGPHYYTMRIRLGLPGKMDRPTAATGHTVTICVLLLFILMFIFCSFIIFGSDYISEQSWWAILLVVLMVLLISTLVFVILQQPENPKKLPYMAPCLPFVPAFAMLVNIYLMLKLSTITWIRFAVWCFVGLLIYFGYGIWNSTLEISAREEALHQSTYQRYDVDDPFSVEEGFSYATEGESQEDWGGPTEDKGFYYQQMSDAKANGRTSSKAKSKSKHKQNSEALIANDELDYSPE

Row | effect of a mutation on the interaction | Variant
11 | disrupting interaction strength | P182L

Variants of: B7
Conditions: with sting_human STING1, Q86WV6
Chain of sting_human STING1, Q86WV6 (Q86WV6 whole entry): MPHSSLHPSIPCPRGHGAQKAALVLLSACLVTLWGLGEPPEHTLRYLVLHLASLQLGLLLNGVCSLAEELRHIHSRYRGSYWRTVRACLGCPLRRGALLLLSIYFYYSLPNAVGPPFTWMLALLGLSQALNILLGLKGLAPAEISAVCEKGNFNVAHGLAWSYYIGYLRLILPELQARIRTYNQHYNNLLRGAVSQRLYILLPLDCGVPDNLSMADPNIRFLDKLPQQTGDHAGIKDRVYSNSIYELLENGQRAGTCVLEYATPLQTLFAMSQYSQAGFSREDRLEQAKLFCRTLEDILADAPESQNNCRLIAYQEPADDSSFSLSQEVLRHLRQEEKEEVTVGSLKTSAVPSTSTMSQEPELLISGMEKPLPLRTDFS

Row | effect of a mutation on the interaction | Variant
12 | with no effect | P182L

Variants of: B8
Conditions: with mf14b_human MFSD14B

Row | effect of a mutation on the interaction | Variant
13 | with no effect | G144W

Variants of: B9
Conditions: with pgrc2_human PGRMC2, O15173

Row | effect of a mutation on the interaction | Variant
14 | with no effect | P182L

Variants of: B10
Conditions: with VIP

Row | effect of a mutation on the interaction | Variant
15 | disrupting interaction strength | V94D

Variants of: B11
Conditions: with emc5_human MMGT1, Q8N4V1

Row | effect of a mutation on the interaction | Variant
16 | with no effect | G144W

Variants of: B12
Conditions: with lime1_human LIME1, Q9H400

Row | effect of a mutation on the interaction | Variant
17 | disrupting interaction strength | G144W

Variants of: B13
Conditions: with FAM209A

Row | effect of a mutation on the interaction | Variant
18 | disrupting interaction strength | E142K
19 | disrupting interaction strength | E85K
20 | with no effect | I91V
21 | with no effect | R28W
22 | with no effect | Y371H
